In patent publication US20230192830A1 (VOYAGER THERAPEUTICS, published 2023):

Columns and labels:
[1] = biological target: T1, enriched paired helical filament tau protein (ePHF) (human, UniProt P10636 2-758); experiment: direct ELISA, ePHF coated
T1 construct: Sarkosyl-insoluble filaments isolated from human frontal cortical tissue; aggregated, isoform mix and phosphorylated residues not specified; also called sarkosyl insoluble tau
Procedure: (§1) These candidate antibodies were analyzed for binding to ePHF and specificity for ePHF over wild type tau by direct ELISA.
(§2) For direct ePHF and wildtype tau ELISA, plates were first coated with ePHF or wild type tau. Antigen solutions were prepared in PBS and 50 µL were pipetted into each well. Plates were covered and incubated for one hour at 37° C. or overnight at 4° C. Plates were then washed and blocked by addition of 150 µl of blocking buffer to each well and incubated one hour at room temperature. Plates were then washed before addition of serially diluted candidate antibody samples prepared in blocking buffer. Detection of candidate antibody binding was carried out by washing plates and adding a solution of enzyme-labeled secondary antibody in blocking buffer to each well. Secondary antibody binding was detected by addition of substrate and spectrophotometric analysis of resulting reaction product.

[2] = biological target: T1, enriched paired helical filament tau …; experiment: follow up analysis, method not stated
[3] = biological target: T1, enriched paired helical filament tau …; experiment: cell-based or functional assay
wild type tau = wild type tau (UniProt P10636-8 1-441, limits assumed); experiment: direct ELISA, wild type tau coated
wild type tau, sequence (P10636 other isoform, or with tags, fused parts or gaps limits assumed): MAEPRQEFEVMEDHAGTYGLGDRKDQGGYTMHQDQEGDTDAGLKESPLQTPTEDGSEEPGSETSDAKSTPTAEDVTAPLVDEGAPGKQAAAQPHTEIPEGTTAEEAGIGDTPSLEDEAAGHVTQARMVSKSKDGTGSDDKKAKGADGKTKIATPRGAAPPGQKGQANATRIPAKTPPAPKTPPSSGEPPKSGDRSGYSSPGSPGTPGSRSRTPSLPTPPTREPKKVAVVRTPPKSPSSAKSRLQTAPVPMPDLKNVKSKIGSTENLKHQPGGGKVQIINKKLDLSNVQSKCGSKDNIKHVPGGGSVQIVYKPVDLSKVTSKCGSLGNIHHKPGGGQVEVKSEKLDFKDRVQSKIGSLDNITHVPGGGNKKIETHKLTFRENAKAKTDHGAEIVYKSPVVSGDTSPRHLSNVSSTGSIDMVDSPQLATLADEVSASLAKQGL
Procedure: as §1, §2

iPHF = iPHF (UniProt P10636-8 1-441); experiment: Octet, epitope binning of Example 4
Procedure: Variable domain nucleic acid sequences from antibodies obtained from immunizations described above were used to prepare recombinant mouse IgG antibodies for iPHF affinity measurement and epitope binding competition analysis. Studies were carried out by Octet (ForteBio, Menlo Park, CA) analysis.
For epitope binding competition analysis, a process also referred to as “epitope binning,” candidate antibodies were analyzed using a sandwich assay format, wherein a first “capture” antibody is attached to the Octet biosensor before antigen and a second antibody are sequentially introduced and biosensor readings are used to determine whether one or both antibodies bind to each antigen. […] PT3, IPN002, or C10.2 antibodies were used as capture antibodies and immobilized on AMC biosensor tips as described above. Biosensor tips were then washed and blocked in 10 µg/ml MOPC. After a further wash, biosensor capture antibodies were associated with iPHF. Candidate antibodies were then analyzed for binding to iPHF. MOPC (non antigen-specific control) and PT3, IPN002, or C10.2 antibodies (in each case matching the biosensor antibody) were used as directly competing controls.

T1 sequence (P10636 other isoform, or with tags, fused parts or gaps limits assumed): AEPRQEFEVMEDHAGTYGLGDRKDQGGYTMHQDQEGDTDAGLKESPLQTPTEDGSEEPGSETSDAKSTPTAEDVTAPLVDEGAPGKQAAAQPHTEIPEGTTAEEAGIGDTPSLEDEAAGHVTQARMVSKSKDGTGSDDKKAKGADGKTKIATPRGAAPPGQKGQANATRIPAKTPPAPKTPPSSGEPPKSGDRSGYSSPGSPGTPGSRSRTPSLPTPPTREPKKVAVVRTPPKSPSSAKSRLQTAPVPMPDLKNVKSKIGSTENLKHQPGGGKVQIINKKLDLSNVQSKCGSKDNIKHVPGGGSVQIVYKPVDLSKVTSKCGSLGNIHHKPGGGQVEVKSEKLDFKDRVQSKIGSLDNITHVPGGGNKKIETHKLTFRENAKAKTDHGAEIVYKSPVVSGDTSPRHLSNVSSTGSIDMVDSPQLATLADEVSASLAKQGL

Binder | EC50 [1] [pM] | Average IC50 (nM), tau aggregation inhibition, immunodepletion assay with tau RD Biosensor cells [3] [nM] | further results
V0023 (antibody, mouse IgG1, V domains shown) VH: QVQLQQPGTELVKPGASVKLSCKASGYTFTIFWMHWVKQRPGHGLEWIGKINPNNGGGDYNEKFKSKATLTVDKSSTTAYLQLSSLTSEDSAVYYCARGTGTGAMDYWGQGTSVTVSS VL: DVVMTQTPLSLPVSLGDHASISCRSSQSLVHSNGITHLYWYLQRPGQTPKLLIYRVSNRFSGVPDRFSGSGSGTDFTLKISSVEAEDLGVYFCFQGTHVPRTFGGGTKLEIE | 110 | 16.5 | selectivity for ePHF over wild type tau [2]: > 100 fold
V0022 (antibody, mouse IgG1, V domains shown) VH: QVQLQQPGTELVKPGSSVNLSCKASGFTFTRYWMHWVKERPGHGLEWIGNINPNNGGTDFNEKFKNKATLTVHKSSTTVFIQLSSLTSEDSAVYYCARGTGTGAMDYWGQGTSVTVSS VL: DVVMTQTPLSLPVSLGDQASISCRSSQSLVHNNGITYLYWYLQKPGQSPKLLIYRVSNRFSGVPDRFGGSGSGTDFTLKISRVEAEDLGVYFCFQGTHVPRTFGGGTKLEIK | 70 | 18.2 | selectivity for ePHF over wild type tau [2]: > 100 fold
V0024 (antibody, mouse IgG1, V domains shown) VH: QVQLQQPGTELVKPGASVKLSCKASGYTFTRFWMHWVKQRPGQGLEWIGNINPNNGGTDNNERFKSKATLTVDRSSSTAYMQLSSLTSEDSAVYYCARGTGTGAMDYWGQGTSVTVSS VL: DVVMTQTPLSLPVSLGDQASISCRSSQSLVHSNGNTHLYWYLQKPGQSPKLLIYRVSSRFSGVPDRFSGSGSGTDFTLKISRVEAEDLGVYFCFQGTHVPRTFGGGTKLEIK |  | 18.6 | 
V0025 (antibody, mouse IgG1, V domains shown) VH: QVQLQQPGTELVKPGASVKLSCKASGFTFTRFWMHWVKQRPGQGLEWIGNINPNNGETNYNEKFKIKAALTVDKSSTTAYMQLSSLTSEDSAVYSCARGTGTGAMDYWGQGTSVTVSS VL: DVVMTQTPLSLPVSLGDQASISCRSSQSLVHSTGNTYLYWYLQKPGQSPKLLIYRVSTRFSGVPDRFSGSGSGTDFTLKINRVEAEDLGVYFCFQGTHVPRTFGGGTKLEIK | 98 |  | 
V0035 (antibody, mouse IgG1, V domains shown) VH: EAQLQQSGAELVRPGSSVKMSCKTSGYTFTSYGINWVKQRPGQGLEWIGYIYIRNGNTAYNEKFKGKATVTSDTSSSTVYMQLSSLTSEDSAIYFCAGTGTSFTYWGQGTLVTVSA VL: not shown | 315 |  | 
V0034 (antibody, mouse IgG1, V domains shown) VH: EVQLQQSGAELVRPGSSVKMSCKTSGYTFTSYGINWVKQRPGQGLEWVGYIYIRDGNTAYNEKFKGKATVTSDTSSSTVYMQLSSLTSEDSAIYFCAGTGTSFAYWGQGTLVTVSA VL: not shown | 351 |  | 
V00014 (antibody, mouse IgG1, V domains shown) VH: QAYLQQSGAELVRPGASVKMSCKASGYTFTSYNMHWVKQTPRQGLEWIGAIYPGNGDTSYNQKFKGKATLTVDKSSSTAYMQLSSLTSEDSAVYFCARGGMDYWGQGTSVTVSS VL: DVVMTQTPLSLPVSLGDQASISCRSSQSLVHSNGNTYLHWYLQKPGQSPKLLIYKVSNRFSGVPDRFSGSGSGTDFTLKISRVEAEDLGVYFCSQSTHVPYTFGGGTKLEIK |  |  | binding result (wild type tau): no binding; binding result (iPHF): no binding
V00018 (antibody, mouse IgG1, V domains shown) VH: QVQLQQPGADLVRPGSSVKLSCKASGYTFTRSWMHWVKQRPIEGLEWIGNIDPSDSEAHYNQKFKDKATLTVDKFSNTAYMQLSSLTSEDSAVYYCARWDDFYVAYWGQGTLVTVSA VL: DIVLTQSPASLAVSLGQRATISCRASKSVSTSGYSYIHWYQQKPGQPPKLLIYLASNLESGVPARFSGSGSGTDFTLNIHPVEEEDAATYYCQHSRELPWTFGGGTKLEIK | 718 |  | 
V2004 (antibody, mouse IgG1, V domains shown) VH: QVQLQQSGAELARPGASVKLSCKSSGYIFSSYWMQWVKQRPGQGLEWIGAIYPGDGDTRYTPKFKGKATLTADKSSSTAYMQLTSLASEDSAVYYCAKGYSQSFDYWGQGTTLTVSS VL: not shown |  |  | binding result (wild type tau): no binding
